Measured values published in US20180312587A1 (ADURO BIOTECH HOLDINGS EUROPE B V, published 2018).
Like-named read-outs stand apart in the source and are kept apart here. Values belong to the binder of their own block, whether it stands above or below them.

Legend:
human SIRPβ1 [1] = biological target: T1, human SIRPβ1 (human, UniProt O00241 30-398); assay: CELISA, CHO-K1 transfectants
T1 construct: also called hSIRPβ1
Experimental: (§1) Reactivity was confirmed using CHO-K1 cells (ATCC CCL-61) expressing a cDNA encoding the full length open reading frame of hSIRPαV1, hSIRPαV1(P74A), hSIRPαV2, and hSIRPβ1 subcloned into the pCI-neo vector (Promega, Madison, Wis.). CHO-K1.hSIRPαV1, CHO-K1.hSIRPαV1(P74A), CHO-K1.hSIRPαV2, and CHO-K1.hSIRPβ1 cells were seeded in culture medium (DMEM-F12 (Gibco) supplemented with 5% New Born Calf Serum (BioWest) and Pen/Strep (Gibco)) in 96-well flat-bottom tissue culture plates and incubated at 37° C., 5% CO₂ and 95% humidity for 24 hours. Subsequently, culture medium was removed and cells were incubated for 1 hour at 37° C., 5% CO₂ and 95% humidity with purified hSIRPα antibodies (used at 10 μg/mL and dilutions thereof). Next, cells were washed with PBS-T and incubated for 1 hour at 37° C., 5% CO₂ and 95% humidity with goat-anti-mouse IgG-HRP (Southern Biotech). Subsequently, cells were washed three times with PBS-T and immunoreactivity against hSIRPαV1, hSIRPαV1(P74A), hSIRPαV2, and hSIRPβ1 was visualized with TMB Stabilized Chromogen (Invitrogen). Reactions were stopped with 0.5 M H₂SO₄ and absorbances were read at 450 and 610 nm.

human SIRPα variant 1 [2] = biological target: T2, human SIRPα variant 1 (human, UniProt P78324 31-504); assay: CELISA, CHO-K1 transfectants
T2 construct: full length ORF on transfected CHO-K1 or HEK293 cells; entry includes the signal peptide; also called hSIRPαV1; SIRPαV1
T2 sequence (P78324 31-504 limits assumed, change not shown): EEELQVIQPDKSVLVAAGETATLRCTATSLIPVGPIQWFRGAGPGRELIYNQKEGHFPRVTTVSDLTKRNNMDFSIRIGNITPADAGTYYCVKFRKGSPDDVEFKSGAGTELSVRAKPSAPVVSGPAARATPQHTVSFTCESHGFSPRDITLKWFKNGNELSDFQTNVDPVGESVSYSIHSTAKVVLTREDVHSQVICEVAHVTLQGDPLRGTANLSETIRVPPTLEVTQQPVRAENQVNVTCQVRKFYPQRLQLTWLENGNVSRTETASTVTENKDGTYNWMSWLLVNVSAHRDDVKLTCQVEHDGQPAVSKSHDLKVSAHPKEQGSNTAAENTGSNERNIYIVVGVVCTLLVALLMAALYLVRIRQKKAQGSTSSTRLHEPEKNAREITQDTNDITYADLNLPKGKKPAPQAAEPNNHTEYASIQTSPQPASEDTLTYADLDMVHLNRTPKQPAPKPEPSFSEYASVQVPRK
Experimental: as §1

hSIRPαV1(P74A) [3] = biological target: T3, hSIRPαV1(P74A) (human, UniProt P78324 31-504); assay: CELISA, CHO-K1 transfectants
T3 construct: also called P74A variant of hSIRPαV1
T3 sequence (P78324 31-504 P74A limits assumed): as the sequence (P78324 31-504 limits assumed, change not shown) above, with P44A counted along it
Experimental: as §1

human SIRPγ [4] = biological target: T4, human SIRPγ (human, UniProt Q9P1W8 29-387); assay: flow cytometry, Jurkat E6.1 cells; nd = not detected
T4 construct: on transfected CHO-K1 cells; also called hSIRPγ
T4 sequence (Q9P1W8 29-387 limits assumed): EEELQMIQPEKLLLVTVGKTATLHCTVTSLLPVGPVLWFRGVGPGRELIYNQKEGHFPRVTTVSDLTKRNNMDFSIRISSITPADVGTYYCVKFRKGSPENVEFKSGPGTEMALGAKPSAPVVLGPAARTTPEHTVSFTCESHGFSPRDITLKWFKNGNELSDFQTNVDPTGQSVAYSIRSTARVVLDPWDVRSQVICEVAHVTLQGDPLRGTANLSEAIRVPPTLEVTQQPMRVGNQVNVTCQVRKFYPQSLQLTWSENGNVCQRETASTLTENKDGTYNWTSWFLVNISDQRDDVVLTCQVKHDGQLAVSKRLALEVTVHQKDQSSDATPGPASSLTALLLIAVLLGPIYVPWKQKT
Experimental: Binding to hSIRPγ was assessed by flow cytometry using the Jurkat E6.1 T cell leukemia cell line (ECACC 88042803). Jurkat cells were seeded in 96-well round bottomed tissue culture plates and incubated for 40 minutes with the anti-hSIRPα antibodies (20 μg/mL and dilutions thereof) in PBS/1% BSA at 4° C. […] After this labeling procedure, cells were washed two times, resuspended in PBS/1% BSA, containing 0.1 μg/mL DAPI (BioLegend), and analysed by flow cytometry on the FACSVerse (BD Biosciences). Data were processed and analysed with FlowJo V10 software (FlowJo, LLC).

human SIRPβ1 [5] = biological target: T1, human SIRPβ1; assay: CELISA, CHO-K1 transfectants; remark: listed apart in the source
Experimental: (§2) The specificity of monoclonal anti-hSIRPα antibodies (e.g., including the hSIRPα antibodies known in the art, KWAR23 ([…]. Patent CA2939293 A1), 18D5 (Patent WO2017/178653 A2), and various commercially available hSIRPα antibodies) for binding to hSIRPαV1, hSIRPαV1(P74A), and hSIRPβ1 was evaluated by CELISA. Reactivity was confirmed using CHO-K1 cells (ATCC CCL-61) expressing a cDNA encoding the full length open reading frame of hSIRPαV1, hSIRPαV1(P74A), and hSIRPβ1 subcloned into the pCI-neo vector (Promega, Madison, Wis.). CHO-K1.hSIRPαV1, CHO-K1.hSIRPαV1(P74A), and CHO-K1.hSIRPβ1 cells were seeded in culture medium (DMEM-F12 (Gibco) supplemented with 5% New Born Calf Serum (BioWest) and Pen/Strep (Gibco)) in 96-well flat-bottom tissue culture plates and incubated at 37° C., 5% CO₂ and 95% humidity for 24 hours. Subsequently, culture medium was removed and cells were incubated for 1 hour at 37° C., 5% CO₂ and 95% humidity with purified hSIRPα antibodies (used at 10 μg/ml and dilutions thereof). Next, cells were washed with PBS-T and incubated for 1 hour at 37° C., 5% CO₂ and 95% humidity with either goat-anti-mouse IgG-HRP (Southern Biotech), goat-anti-human IgG-HRP (Jackson Immuno Research), or goat-anti-rabbit IgG-HRP (Southern Biotech). Subsequently, cells were washed three times with PBS-T and immunoreactivity against hSIRPαV1, hSIRPαV1(P74A), and hSIRPβ1 was visualized with TMB Stabilized Chromogen (Invitrogen). Reactions were stopped with 0.5 M H₂SO₄ and absorbances were read at 450 and 610 nm.

human SIRPα variant 1 [6] = biological target: T2, human SIRPα variant 1; assay: CELISA, CHO-K1 transfectants; remark: listed apart in the source
Experimental: as §2

hSIRPαV1(P74A) [7] = biological target: T3, hSIRPαV1(P74A); assay: CELISA, CHO-K1 transfectants; remark: listed apart in the source
Experimental: as §2

human SIRPα variant 2 [8] = biological target: T5, human SIRPα variant 2 (human, UniProt P78324 31-504); assay: CELISA, CHO-K1 transfectants; nd = not detected
T5 construct: full length ORF on transfected CHO-K1 cells; also called hSIRPαV2; SIRPαV2
T5 sequence (P78324 other isoform, or with tags, fused parts or gaps mutant limits assumed): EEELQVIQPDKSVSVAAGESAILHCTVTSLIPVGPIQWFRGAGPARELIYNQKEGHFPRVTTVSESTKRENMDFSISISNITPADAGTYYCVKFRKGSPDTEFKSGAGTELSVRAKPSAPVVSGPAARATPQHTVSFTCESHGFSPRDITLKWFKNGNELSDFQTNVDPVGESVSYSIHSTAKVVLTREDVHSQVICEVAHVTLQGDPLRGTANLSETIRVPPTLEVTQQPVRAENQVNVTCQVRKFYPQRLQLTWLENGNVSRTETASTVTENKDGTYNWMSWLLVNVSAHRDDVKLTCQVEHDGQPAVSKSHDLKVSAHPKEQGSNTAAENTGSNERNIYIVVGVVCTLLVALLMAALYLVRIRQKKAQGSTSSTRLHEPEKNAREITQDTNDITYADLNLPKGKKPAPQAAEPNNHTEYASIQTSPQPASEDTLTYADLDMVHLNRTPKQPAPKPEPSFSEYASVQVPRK
Experimental: as §1

human SIRPα variant 1 [9] = biological target: T2, human SIRPα variant 1; assay: flow cytometry, blockade of DyLight488-hCD47/Fc binding to U-937 cells
Experimental: hCD47 blockade for the KWAR23, clone 18D5, and hSIRPα.40A antibodies was assessed by flow cytometry. For this purpose, THP-1 (ATCC TIB-202) and U-937 (ATCC CRL-1593.2) monocyte cell lines were used as the source of hSIRPα in the assay. THP-1 and U-937 cells were seeded in 96-well round bottomed tissue culture plates and incubated for 45 minutes with FcR Blocking Reagent (Miltenyi Biotec) and indicated anti-hSIRPα antibodies (20 μg/mL and dilutions thereof) in PBS/1% BSA at 4° C. […] After this labeling procedure, cells were washed two times, resuspended in PBS/1% BSA containing 0.1 μg/mL DAPI (BioLegend), and analysed by flow cytometry on the FACSVerse (BD Biosciences). Data were processed and analysed with FlowJo V10 software (FlowJo, LLC) and plotted using GraphPad Prism 6 (GraphPad Software, Inc.). Binding of recombinant hCD47 fused to an Fc domain of human IgG1 was monitored in the presence of increasing amounts of the anti-hSIRPα antibodies. […] IC50 values represent the concentration at which half of the inhibition is observed.

human SIRPβ1 [10] = biological target: T1, human SIRPβ1; assay: CELISA, CHO-K1 transfectants; nd = not detected
Experimental: (§3) Binding of the humanized antibodies to hSIRPα was studied in CELISA format. Binding of the hSIRPα antibodies to human SIRPαV1, SIRPαV2, hSIRPβ1, and hSIRPγ was confirmed using CHO-K1 cells that had been transiently transfected with cDNA encoding the full length open reading frame of each of these respective targets subcloned into the pCI-neo vector. CHO-K1.hSIRPαV1, CHO-K1.hSIRPαV2, CHO-K1.hSIRPβ1, and CHO-K1.hSIRPγ cells were seeded in culture medium (DMEM-F12 (Gibco) supplemented with 5% New Born Calf Serum (BioWest) and Pen/Strep (Gibco)) in 96-well flat-bottom tissue culture plates and incubated at 37° C., 5% CO₂ and 95% humidity until cell layers were confluent. Subsequently, culture medium was removed and cells were incubated for 1 hour at 37° C., 5% CO₂ and 95% humidity with purified hSIRPα antibodies (10 μg/mL and dilutions thereof). Next, cells were washed with PBS-T and incubated for 1 hour at 37° C., 5% CO₂ and 95% humidity with goat-anti-human IgG-HRP conjugate (Jackson Immuno Research) or goat-anti-mouse IgG-HRP (Southern Biotech). Subsequently, cells were washed three times with PBS-T and anti-hSIRPα immunoreactivity was visualized with TMB Stabilized Chromogen (Invitrogen). Reactions were stopped with 0.5 M H₂SO₄ and absorbances were read at 450 and 610 nm. […] In Table 13 the EC50 values of the humanized hSIRPα antibodies are depicted.
(§4) Table 13: Binding of humanized and parental hSIRPα.50A antibodies to CHO-K1.hSIRPαV1, CHO-K1.hSIRPαV2, CHO-K1.hSIRPβ1, and CHO-K1.hSIRPγ cells.

human SIRPα variant 2 [11] = biological target: T5, human SIRPα variant 2; assay: CELISA, CHO-K1 transfectants; average of two experiments
Experimental: as §3, §4

human SIRPα variant 1 [12] = biological target: T2, human SIRPα variant 1; assay: as above
Experimental: as §3, §4

human SIRPγ [13] = biological target: T4, human SIRPγ; assay: CELISA, CHO-K1 transfectants; extrapolated
Experimental: as §3, §4

T1 sequence (O00241 30-398 limits assumed): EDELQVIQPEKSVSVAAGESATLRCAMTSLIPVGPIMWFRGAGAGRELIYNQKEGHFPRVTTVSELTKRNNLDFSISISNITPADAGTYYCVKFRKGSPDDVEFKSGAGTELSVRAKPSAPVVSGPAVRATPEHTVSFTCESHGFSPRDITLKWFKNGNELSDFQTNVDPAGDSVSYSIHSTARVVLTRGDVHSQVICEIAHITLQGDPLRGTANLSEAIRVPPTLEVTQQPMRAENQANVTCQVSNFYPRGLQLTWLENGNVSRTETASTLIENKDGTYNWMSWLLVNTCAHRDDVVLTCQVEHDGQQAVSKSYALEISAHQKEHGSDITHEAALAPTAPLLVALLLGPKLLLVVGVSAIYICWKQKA

EC50 (human SIRPβ1 [1]): 0.055 nM
EC50 (human SIRPα variant 1 [2]): 0.134 nM
EC50 (hSIRPαV1(P74A) [3]): 0.055 nM
EC50 (human SIRPβ1 [5]): 0.064 nM
EC50 (human SIRPα variant 1 [6]): 0.128 nM
EC50 (hSIRPαV1(P74A) [7]): 0.073 nM
IC50 (human SIRPα variant 1 [9]): 1.52 nM
B1: 18D5 (antibody, V domains shown)
VH: QVQLQQPGAELVRPGSSVKLSCKASGYTFTSYWVHWVKQRPIQGLEWIGNIDPSDSDTHYNQKFKDKASLTVDKSSSTAYMQLSSLTFEDSAVYYCVRGGTGTMAWFAYWGQGTLVTVSA
VL: DVVMTQTPLSLPVSLGDQASISCRSSQSLVHSYGNTYLYWYLQKPGQSPKLLIYRVSNRFSGVPDRFSGSGSGTDFTLKISRVEAEDLGVYFCFQGTHVPYTFGSGTKLEIK
notes: from WO2017/178653; also called clone 18D5
binding result (human SIRPγ [4]): no binding (tested: 20 µg/mL and dilutions thereof)
binding result (human SIRPα variant 2 [8]): no binding (tested: 10 µg/mL and dilutions thereof)

EC50 (human SIRPα variant 2 [11]): 1.11 nM
EC50 (human SIRPα variant 1 [12]): 1.17 nM
EC50 (human SIRPγ [13]): 4.03 nM
B2: hSIRPα.50A.H5L4 (antibody, human IgG4 S228P, kappa, V domains shown)
VH: EVQLVQSGAEVVKPGASVKVSCKASGFTFTNYYIHWVRQAPEQGLEWIGWIYPGNVNTKYNEKFKARVTMTADKSTSTAYMELSSLRSDDMAVYYCARPTIIATDFDVWGQGTTVTVSS
VL: DIQMTQSPSSLSASVGDRVTITCKASQGVGTAVGWYQKKPGKVPKLLIYWASTRHTGVPDRFSGSGSGTDFTLTINGLQPEDVATYYCQQYSTYPFTFGGGTKLEIKR
notes: human IgG4 S228P, kappa; also called hSIRPα.50H5L4
binding result (human SIRPβ1 [10]): no binding (tested: 10 µg/mL and dilutions thereof)
